Data as given in patent US20070117180.

Chain of PACE4 (Plasminogen Angiostatin Converting Enzyme of pH 4) (chain, as listed by the source): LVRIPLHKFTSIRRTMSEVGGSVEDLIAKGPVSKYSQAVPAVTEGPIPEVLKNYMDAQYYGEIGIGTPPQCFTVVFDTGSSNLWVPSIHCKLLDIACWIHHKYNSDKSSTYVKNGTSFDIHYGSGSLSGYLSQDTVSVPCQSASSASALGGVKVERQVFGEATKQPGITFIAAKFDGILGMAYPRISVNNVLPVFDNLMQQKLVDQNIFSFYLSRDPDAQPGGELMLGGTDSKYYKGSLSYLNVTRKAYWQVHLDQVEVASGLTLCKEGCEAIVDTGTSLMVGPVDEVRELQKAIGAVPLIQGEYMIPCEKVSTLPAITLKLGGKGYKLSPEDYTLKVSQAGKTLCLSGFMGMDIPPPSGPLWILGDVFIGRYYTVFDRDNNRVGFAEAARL
Chain of plasminogen (Glu-1) (chain, as listed by the source): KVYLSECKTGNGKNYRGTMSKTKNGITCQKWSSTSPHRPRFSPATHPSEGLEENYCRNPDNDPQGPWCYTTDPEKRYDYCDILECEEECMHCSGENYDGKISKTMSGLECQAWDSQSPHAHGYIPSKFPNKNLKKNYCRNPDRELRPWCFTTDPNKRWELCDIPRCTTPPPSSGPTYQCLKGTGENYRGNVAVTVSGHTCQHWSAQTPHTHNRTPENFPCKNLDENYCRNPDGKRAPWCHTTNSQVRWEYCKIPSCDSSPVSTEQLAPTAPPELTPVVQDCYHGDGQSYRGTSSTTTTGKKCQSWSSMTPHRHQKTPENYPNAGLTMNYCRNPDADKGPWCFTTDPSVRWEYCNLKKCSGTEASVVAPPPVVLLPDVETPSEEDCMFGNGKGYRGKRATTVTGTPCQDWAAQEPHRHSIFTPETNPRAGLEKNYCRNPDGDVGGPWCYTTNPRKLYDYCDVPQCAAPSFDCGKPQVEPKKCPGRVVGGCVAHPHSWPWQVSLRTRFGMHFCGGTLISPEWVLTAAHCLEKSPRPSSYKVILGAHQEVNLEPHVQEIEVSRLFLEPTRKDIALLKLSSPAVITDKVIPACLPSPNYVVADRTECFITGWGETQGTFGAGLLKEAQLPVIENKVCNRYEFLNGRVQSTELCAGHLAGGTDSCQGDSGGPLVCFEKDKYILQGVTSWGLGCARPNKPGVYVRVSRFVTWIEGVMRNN

PACE4 (Plasminogen Angiostatin Converting Enzyme of pH 4)
degradation of fibronectin by the enzyme (fibronectin): Fibronectin was degraded restrictedly with this enzyme | fragmentation of plasminogen (SDS-PAGE) at neutral and acidic pH (plasminogen (Glu-1)): the enzyme of the present invention fragments plasminogen only at an acidic range of pH
